According to US20160046725A1 (PIERRE FABRE MEDICAMENT, published 2016):

T1: human Axl receptor on human tumor cells (human, UniProt P30530 26-894)
T1 sequence: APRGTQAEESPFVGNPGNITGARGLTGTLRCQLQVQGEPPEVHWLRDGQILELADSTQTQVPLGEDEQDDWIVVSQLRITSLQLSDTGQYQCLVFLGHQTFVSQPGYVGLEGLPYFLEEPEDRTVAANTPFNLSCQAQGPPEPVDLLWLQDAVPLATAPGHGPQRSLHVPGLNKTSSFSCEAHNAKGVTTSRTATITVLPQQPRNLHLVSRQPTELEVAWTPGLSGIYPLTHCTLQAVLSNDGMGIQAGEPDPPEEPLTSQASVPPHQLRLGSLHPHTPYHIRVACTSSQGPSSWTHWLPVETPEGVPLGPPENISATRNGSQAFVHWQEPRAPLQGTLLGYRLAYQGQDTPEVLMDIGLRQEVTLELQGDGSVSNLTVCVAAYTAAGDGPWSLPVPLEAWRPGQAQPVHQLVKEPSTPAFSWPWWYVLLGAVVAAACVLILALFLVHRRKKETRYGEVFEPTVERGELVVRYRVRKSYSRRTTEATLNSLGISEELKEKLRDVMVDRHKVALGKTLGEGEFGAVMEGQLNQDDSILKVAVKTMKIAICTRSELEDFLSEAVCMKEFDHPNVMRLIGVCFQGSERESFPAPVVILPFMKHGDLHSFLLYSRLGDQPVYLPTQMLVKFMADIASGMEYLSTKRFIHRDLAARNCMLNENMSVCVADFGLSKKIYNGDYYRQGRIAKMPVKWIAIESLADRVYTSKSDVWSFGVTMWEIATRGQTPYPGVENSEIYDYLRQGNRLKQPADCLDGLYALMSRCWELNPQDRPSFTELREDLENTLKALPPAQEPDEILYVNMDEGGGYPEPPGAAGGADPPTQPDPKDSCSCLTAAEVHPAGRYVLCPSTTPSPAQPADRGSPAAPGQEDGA

T2: monkey Axl receptor on COS7 cells (African green monkey, UniProt A0A0D9S0W1 26-894)
T2 construct: also called monkey cellular form of the Axl receptor
T2 sequence: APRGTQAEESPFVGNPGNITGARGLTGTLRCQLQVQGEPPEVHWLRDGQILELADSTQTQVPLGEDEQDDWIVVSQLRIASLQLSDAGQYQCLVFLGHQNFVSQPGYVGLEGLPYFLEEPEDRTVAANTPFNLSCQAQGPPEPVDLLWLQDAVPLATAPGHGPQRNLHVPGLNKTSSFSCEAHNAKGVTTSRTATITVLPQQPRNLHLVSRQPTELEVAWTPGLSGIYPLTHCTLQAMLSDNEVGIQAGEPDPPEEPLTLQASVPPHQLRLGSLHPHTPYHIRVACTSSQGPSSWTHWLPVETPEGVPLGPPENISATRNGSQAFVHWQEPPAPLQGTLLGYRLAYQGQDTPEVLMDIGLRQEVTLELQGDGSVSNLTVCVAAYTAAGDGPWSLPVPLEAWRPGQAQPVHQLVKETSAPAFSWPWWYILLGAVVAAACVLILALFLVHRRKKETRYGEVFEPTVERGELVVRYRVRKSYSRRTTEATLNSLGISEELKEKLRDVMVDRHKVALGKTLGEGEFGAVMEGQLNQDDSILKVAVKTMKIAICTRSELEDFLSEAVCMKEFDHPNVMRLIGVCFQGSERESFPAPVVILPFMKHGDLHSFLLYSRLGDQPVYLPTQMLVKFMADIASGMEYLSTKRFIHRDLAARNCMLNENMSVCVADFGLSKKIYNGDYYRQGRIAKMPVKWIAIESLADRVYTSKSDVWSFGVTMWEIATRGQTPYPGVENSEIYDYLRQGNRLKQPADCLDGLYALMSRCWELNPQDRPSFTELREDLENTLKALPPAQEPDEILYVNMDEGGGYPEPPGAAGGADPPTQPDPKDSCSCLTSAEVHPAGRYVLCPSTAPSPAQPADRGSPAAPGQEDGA

B1: 110D7 anti-Axl monoclonal antibody (antibody, V domains shown)
VH: EVKLVESGGGLVQPGGSLKLSCATSGFTFSDYYMYWVRQTPEKRLEWVAYISNGGGSTYYPDTVKGRFTMSRDNAKNTLYLQMSRLKSEDTAMYYCARLSFYAMDYWGQGTSVTVSS
VL: DIVMTQSHKFMSTSVGDRVSITCKASQDVTTAVAWYQQKPGQSPKLLIYWASTRHTGVPDRFTGSGSGTDYTLTISSVQAEDLALYYCQQHYRIPFTFGSGTKLEIK
notes: Murine monoclonal antibody purified from a hybridoma; a mIgG1 isotype control (9G4) is used beside it; also called m110D7; monoclonal antibody 110D7 derived from the hybridoma I-3959
B2: 1024G11 anti-Axl monoclonal antibody (antibody, V domains shown)
VH: EVKLVESGGGLVQPGGSLNLSCAASGFTFSSYSMSWVRQTPEKRLEWVAFISNGGGRTYYPDTVKGRFTFSRDNARNTLYLQMSSLNSEDTAMYFCARGTTESYYAMDYWGQGTSVTVSS
VL: DIVMTQSHKFMSTSVGDRVSITCKASQDVITAVAWYQQKPGQSPKLLIYWASTRHTGVPDRFTGSGSGTDYTLTISSVQAEDLALYFCQQHLSTPLTFGAGTKLELK
notes: Murine monoclonal antibody purified from a hybridoma; a mIgG1 isotype control (9G4) is used beside it; also called monoclonal antibody 1024G11 derived from the hybridoma I-4501
B3: 1003A2 anti-Axl monoclonal antibody (antibody, V domains shown)
VH: EVKLVESGGGLVQPGGSLKLSCAASGFTFNSYSMSWVRQTPEKRLEWVAYISNGGGRTYYPDTIKGRFTLSRDNDRNTLYLQMSSLKSEDTAMYYCARGTTESYYALDYWGQGTSVTVSS
VL: DIVMTQSHKFMSTSLGDRISITCKASQDVITAVAWYQQKPGQSPKLLIYWASTRHTGVPDRFTGSGSGTDYNLTISSVQAEDLALYYCQQHFSTPLTFGAGTKLELK
notes: Murine monoclonal antibody purified from a hybridoma; a mIgG1 isotype control (9G4) is used beside it; also called monoclonal antibody 1003A2 derived from the hybridoma I-4499

Legend:
[1] = molecular target: T1, human Axl receptor on human tumor cells; assay: cell-based or functional assay
[2] = molecular target: T2, monkey Axl receptor on COS7 cells; assay: flow cytometry titration on COS7 cells
Description: For 110D7, respectively 1003A2 and 1024G11, cellular binding purpose, 2·10⁵ cells were incubated with an antibody concentration range prepared by ½ serial dilution (12 points) of a 10 μg/ml (6.66 10⁻⁸ M) antibody solution of 110D7, respectively 1003A2 and 1024G11, or m9G4 (mIgG1 isotype control Mab) for 20 min at 4° C. After 3 washes in phosphate-buffered saline (PBS) supplemented with 1% BSA and 0.01% NaN₃, cells were incubated with secondary antibody goat anti-mouse Alexa 488 (dilution 1/500) for 20 minutes at 4° C. After 3 additional washes in PBS supplemented with 1% BSA and 0.1% NaN₃, cells were analyzed by FACS (Facscalibur, Becton-Dickinson). At least 5000 cells were assessed to calculate the mean value of fluorescence intensity. Data are analyzed using Prism software.

[3] = molecular target: T1, human Axl receptor on human tumor cells; assay: cell-based or functional assay; remark: listed apart in the source

| Binder | Axl down-regulation at 4 h (western blot, SN12C) [1] | Axl down-regulation at 24 h (western blot, SN12C) [1] | maximal cytotoxic effect on SN12C cells (Mab-Zap assay) [1] | antibody concentration above which the plateau is reached [2] | % remaining Axl [3] | Δ (MFI No Ab 24 h - MFI Ab 24 h) [3] |
| --- | --- | --- | --- | --- | --- | --- |
| B1 | 50% | 84% | ~49% | > 1000 pM | 29.8% | 588 MFI |
| B2 | 68% | 85% | ~40% | > 520 pM | 45.5% | 478 MFI |
| B3 | 66% | 89% | ~37% | > 520 pM | 35% | 505 MFI |
